From patent publication US20200270310A1, “MAFG AS A POTENTIAL THERAPEUTIC TARGET TO RESTORE CHEMOSENSITIVITY IN PLATINUM-RESISTANT CANCER CELLS” (FUNDACÓIN PARA LA INVESTIGACIÓN BIOMÉDICA DEL HOSPITAL …, priority 2017, published 2020)

Columns and labels:
H1299 cells [1] = experiment: Viability to CDDP with and without apMAFG6F; format: cell-based, human
Source text: The human cancer cells H23 and A2780, and the HEK-293T epithelial cells were purchased from ATCC (Manassas, USA) and ECACC (Sigma, Spain) and cultured as recommended. The CDDP-resistant variants H23R and A2780R were established in our laboratory as previously described, using CDDP (Farma Ferrer, Spain) for cell viability assays. To validate the results obtained from the resistant cell lines established in our laboratory, we also used the CDDP-resistant lung cancer cell line H1299, with IC50 over 7, purchased from ATCC and maintained as recommended.
HEK293 and H23S/R cells were seeded into 96-well plates then transfected with 5, 12.5, 25, 75 and 100 nM of MAFG aptamers or treated with PBS-Mg using Jet Pei PolyPlus transfection reagent (PolyPlus Transfection, USA). The dose of 25 nM aptamer was afterwards used in combination with increased doses of CDDP to assay viability and ROS production as described above. To confirm the aptamer-transfection efficiency cells were seeded in 24-well plates for aptamer isolation and confirmation of aptamer transfection by quantitative analysis. A Myc-DDK-tagged ORF clone of MAFG the negative control pCMV6 were used for in transient transfection (OriGene, USA) in combination with MAFG-aptamers following the same procedure.

H1299 cells [2] = experiment: Expression of MAFG and HMOX1 in cells carrying the aptamer; format: cell-based, human; conditions: cells carrying apMAFG6F
Method: For semiquantitative RT-PCR, 500 ng of total RNA isolated from cell lines was used for RT reaction using PrimeScript™ RT Master (Clontech-Takara, USA) and subsequent semiquantitative PCR using Promega PCR Mix (Promega, USA) as previously described. Relative quantification was performed by measuring the intensity of band amplified using ImageJ software. Primers for HMOX1 (F: 5′-[…]-3′; R: 5′-[…]-3′), MAFG (F: 5′-[…]-3′; R: 5′-[…]-3′) and GAPDH (F: 5′-GAGAGACCCTCACTGCTG-3′; R: 5′-[…]-3′) were designed to include the probe from the array in order to assure the correct transcript identification.

MAFG-Myc = molecular target: T1, MAFG-Myc (Homo sapiens, UniProt O15525); experiment: Enzyme-linked oligonucleotide assay (ELONA) of aptamers and aptamer populations; format: binding
T1 construct: Myc (C); DDK (FLAG)
Method: FIG. 4. Analysis of the affinity of the aptamers against MAFG. (A) Quantification of aptamer-MAFG complexes by qPCR comparing absence (dot pattern) or presence (filled pattern) of MAFG protein. […] Bars represent the mean±SEM of 2-3 experiments (B) Specificity binding assay of aptamers to MAFG performed by ELONA. MAFG-myc was plated at 50ng/well in 96-well plates followed by incubation with 5′ digoxigenin-labeled aptamers from RND40, SEL3MAFG and SEL6MAFG. The figure represents the mean±SEM of 3 independent experiments. p<0.01. (C) Aptacytochemistry in HEK-293T cells transiently transfected with MAFG-myc. Cells overexpressing MAFG were incubated with 5′ Alexafluor 488-conjugated aptamers from RND40, SEL3MAFG or SEL6MAFG (upper panel) or Myc antibody (lower panel). Confocal microscopy images corresponding to the staining of nuclei with Hoechst (blue), antibodies (red), and aptamers (green) are shown. Arrowhead indicates positive cells. Bar=13 μm. (D) Study of individual aptamers affinity performed by ELONA. Recombinant MAFG was plated at 50 ng/well in 96-well plates followed by incubation with 5′ digoxigenin-labeled individual aptamers apMAGF3F, apMAFG6F and apMAFG11F. The figure represents the mean±SD of 2 independent experiments. (E) Secondary structures of aptamers apMAGF3F, apMAFG6F and apMAFG11F obtained by bioinformatics sequence analysis using the mFold software taking into account the lower free energy (AG).
(ii) Enzyme-linked oligonucleotide assay (ELONA): Aptamers were labeled by PCR using 5′ digoxigenin-labeled F3/5′ digoxigenin-labeled R3 primers (IBA Life Sciences). To assess the enrichment of the selected population and the affinity of the individual aptamers for the target, MAFG-Myc (50 ng) was incubated with the rounds 3, 6 of aptamers or the RND40 library. OD405nm values were determined using a SpectraFluor microplate reader (TECAN, Barcelona, Spain).

[3] = system: human MAFG peptides M1-M10; experiment: ELONA of aptamers with 10 MAFG peptides; format: binding; conditions: digoxigenin aptamer 20 nM, 1 μg peptide, absorbance at 405 nm
Method: FIG. 9. Characterization of the interaction of aptamers with MAFG. ELONAS in which the Aptamers bound to digoxigenin (20 nM) were incubated 1 hour at 37° C. with 10 peptides (1 μg) previously attached to the plate overnight. After incubating 1 hour with antidigoxigenin-Peroxidase 1/1000, ABTS was added and at 10 minutes the absorbance at 405 nm was measured.
In order to identify compounds of the invention and starting from the amino acidic sequence of human MAFG (NCBI Reference Sequence: NP_116100.2) of: SEQ ID NO 2: […]); we designed the following 10 peptides (please refer to table below):
Peptide M4, amino acids 49-68 corresponds to the basic MAFG region containing the tyrosine residue (Tyr64), as well as the arginine residue (Arg57) required for binding to the DNA, in addition to a nuclear localization signal.

[4] = molecular target: T2, MAFG in H23S and H23R cells (Homo sapiens, UniProt O15525); experiment: Aptacytochemistry with digoxigenin-labeled individual aptamers; format: cell-based
T2 construct: endogenous in cells; host or cells: H23S and H23R (NSCLC cells, fixed)
Method: Following the methodology described above, H23R cells were incubated with 6 pmol of digoxigenin-labeled aptamers (IBA Life Sciences) in selection buffer for 1 hour at room temperature. Subsequently, cells were washed three times with PBS and incubated with anti-digoxigenin conjugated with 5′ AlexaFluor 488 (R&D systems, USA) at 1/500 dilution in blocking buffer for 1 hour at room temperature, as secondary antibody. Finally, the cells were mounted on glass slides using glycerol-buffer containing p-phenylenediamine and 1/750 dilution of Dapi for nuclear staining. Controls were made by omitting the aptamer. Colocalization was assessed by confocal microcopy as described in (iii).

CDDP IC50 (H1299 cells [1]; H1299, as stated in materials, unit not given)	Molecule	CDDP IC50 (H1299 cells [1]; untransfected H1299) [µg/mL]	HMOX1 expression (H1299 cells [2])	MAFG expression (H1299 cells [2])	affinity against MAFG (MAFG-Myc; Example 1, individual aptamers)	binding capacity to the target (MAFG-Myc; Example 3, individual sequences from SEL6MAFG)	binding signal relative to BSA protein (MAFG-Myc; individual sequences from SEL6MAFG)	interaction of aptamers with the 10 MAFG peptides by ELONA [3]	cellular localization of the aptamer [4]	number of dots per nucleus, H23R versus H23S [4]
over 7	[NH2][Pt]([NH2])([Cl])[Cl] [CDDP, Cisplatin]	10								
	GCGGATGAAGACTGGTGTCGATGCATGTGTAGTGCATTTCGAGCCGTTCTATTGGTGTGCCCTAAATACGAGCAAC (nucleic acid, chemistry not given here, DNA aptamer selected against the MAFG protein by SELEX) GCGGATGAAGACTGGTGTCGATGCATGTGTAGTGCATTTCGAGCCGTTCTATTGGTGTGCCCTAAATACGAGCAAC		decrease	decrease	high affinity	high binding capacity to the target in the nanomolar range	four times that of the BSA protein	recognized peptide M4	preferentially located at the nuclei	remarkable differences
